Values quoted from earlier work as cited in PMC4078514, “A Bombesin-Shepherdin Radioconjugate Designed for Combined Extra- and Intracellular Targeting” (Pharmaceuticals, 2014).

Biological target: Hsp90 (Homo sapiens) (UniProt P07900)

Sequence of Shepherdin 79-83 (O15392 whole entry, looked up, tested part not stated): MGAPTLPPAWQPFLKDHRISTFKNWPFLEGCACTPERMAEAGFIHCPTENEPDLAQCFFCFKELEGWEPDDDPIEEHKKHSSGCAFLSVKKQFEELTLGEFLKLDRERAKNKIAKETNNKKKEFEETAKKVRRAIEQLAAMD

- Kd: 80 nM
Substance: Shepherdin 79-83 (from UniProt O15392)
